This test deals with Kruppel-like factor 13 (KLF13), wild type, myc-tagged (human, UniProt Q9Y2Y9 1-288). Briefly: cell-based or functional assay.

Bounds are passed on as bounds.

Chain of Kruppel-like factor 13 (KLF13), wild type, myc-tagged (Q9Y2Y9 whole entry): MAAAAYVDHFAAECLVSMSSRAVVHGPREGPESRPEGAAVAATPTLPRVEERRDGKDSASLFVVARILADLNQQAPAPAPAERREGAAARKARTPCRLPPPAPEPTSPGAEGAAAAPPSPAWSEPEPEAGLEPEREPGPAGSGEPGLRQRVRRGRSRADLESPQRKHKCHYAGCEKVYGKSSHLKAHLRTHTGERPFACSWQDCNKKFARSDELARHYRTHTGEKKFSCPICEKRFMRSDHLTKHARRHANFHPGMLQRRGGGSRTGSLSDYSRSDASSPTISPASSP

B1: TBX5 (natural protein, UniProt Q99593 1-518, looked up)
chain: MADADEGFGLAHTPLEPDAKDLPCDSKPESALGAPSKSPSSPQAAFTQQGMEGIKVFLHERELWLKFHEVGTEMIITKAGRRMFPSYKVKVTGLNPKTKYILLMDIVPADDHRYKFADNKWSVTGKAEPAMPGRLYVHPDSPATGAHWMRQLVSFQKLKLTNNHLDPFGHIILNSMHKYQPRLHIVKADENNGFGSKNTAFCTHVFPETAFIAVTSYQNHKITQLKIENNPFAKGFRGSDDMELHRMSRMQSKEYPVVPRSTVRQKVASNHSPFSSESRALSTSSNLGSQYQCENGVSGPSQDLLPPPNPYPLPQEHSQIYHCTKRKEEECSTTDHPYKKPYMETSPSEEDSFYRSSYPQQQGLGASYRTESAQRQACMYASSAPPSEPVPSLEDISCNTWPSMPSYSSCTVTTVQPMDRLPYQHFSAHFTSGPLVPRLAGMANHGSPQLGEGMFQHQTSVAHQPVVRQCGPQTGLQSPGTLQPPEFLYSHGVPRTLSPHQYHSVHGVGMVPEWSDNS
In the case of B1, the “BNP-luciferase reporter activation in NIH 3 T3 cells cotransfected with KLF13 and TBX5” value was ≤ 75 fold.

For the origin of these results see paper PMC7160950, “Identification and analysis of KLF13 variants in patients with congenital heart disease” (BMC Medical Genetics, 2020).
